# From PMC11374129
# Target: T1, EnvZ (Escherichia coli K12) (UniProt P0AEJ4)
# T1 sequence: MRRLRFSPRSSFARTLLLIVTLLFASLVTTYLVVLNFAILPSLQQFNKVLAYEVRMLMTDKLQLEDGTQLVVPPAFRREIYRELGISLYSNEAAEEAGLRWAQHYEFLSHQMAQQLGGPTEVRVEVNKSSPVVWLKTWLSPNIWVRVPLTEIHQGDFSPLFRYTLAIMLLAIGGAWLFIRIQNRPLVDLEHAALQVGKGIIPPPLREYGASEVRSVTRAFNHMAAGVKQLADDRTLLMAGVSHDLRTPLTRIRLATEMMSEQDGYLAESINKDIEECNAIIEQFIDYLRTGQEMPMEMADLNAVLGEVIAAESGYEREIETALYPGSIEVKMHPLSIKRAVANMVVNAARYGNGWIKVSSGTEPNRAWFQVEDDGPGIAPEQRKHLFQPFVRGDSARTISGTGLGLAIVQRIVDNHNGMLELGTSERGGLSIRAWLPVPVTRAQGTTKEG
# Assay: EMSA
sequence,measurement,value
CACGGCGTGTTCTTCCGACAACGTTCTTAAAAAAACTTCTCTCTCCCAGGTCACACCAGTCACAGAGATTGGCTGTGAGTGTCGCTGTGCACAAACCGCGCACAGACTCATACAGTCCCGGCGGTTCCGTTCACAACCCACGCCTCATCCCCACCGACCCAACACACACCCCACAGTCATCGCCACCGTCATCCACAACTCCGAC (double strand) [oriC],binding,no binding
